These results are taken from the supplement of paper PMC9112550, “Optimization of the antimicrobial peptide Bac7 by deep mutational scanning” (BMC Biology, 2022).

This data set has as its system Escherichia coli TOP10. The data set is described as follows: shrunken log2 fold change of peptide-encoding DNA abundance (4.5 h post-induction vs induction); higher = less antimicrobial activity (less host growth inhibition). The following applies: time post-induction: 4.5 h; library: site-saturation at positions 5, 18, 19, 20.
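Note: peptides expressed intracellularly from a pBAD plasmid library in pooled LB shake-flask culture, induced with 0.3% L-arabinose, DNA abundance read by NGS, three biological replicates, DESeq2 with apeglm shrinkage.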

In the case of RRIRKRPPRLPRPRPRPTNPPRP, the “shrunken log2 fold change” value amounted to 0.155.
Next, RRIRIRPPRLPRPRPRPSAGPRP: -0.334; RRIRERPPRLPRPRPRPIIGPRP: -0.249.
Next, RRIRQRPPRLPRPRPRPGFVPRP: 0.217.
Regarding RRIRERPPRLPRPRPRPPYGPRP, the “shrunken log2 fold change” value is -0.244.
Next, RRIRGRPPRLPRPRPRPCVPPRP: 0.307; RRIRMRPPRLPRPRPRPWFTPRP: -0.263.
Next, RRIRIRPPRLPRPRPRPQLMPRP: -0.442.
In the case of RRIRFRPPRLPRPRPRPSLYPRP, the “shrunken log2 fold change” value was -0.594.
For the sequence RRIRIRPPRLPRPRPRPTQYPRP, the “shrunken log2 fold change” value is -0.616.
As to RRIRSRPPRLPRPRPRPSNFPRP, the “shrunken log2 fold change” value was -0.379.
Next, RRIRNRPPRLPRPRPRPGGFPRP: 0.144; RRIRARPPRLPRPRPRPGSPPRP: 0.394; RRIRCRPPRLPRPRPRPIVIPRP: -1.09.
For RRIRYRPPRLPRPRPRPSAAPRP, the “shrunken log2 fold change” value is -0.222.
Next, RRIRPRPPRLPRPRPRPDSAPRP: -0.18.
On to RRIRERPPRLPRPRPRPEPHPRP, for which the “shrunken log2 fold change” value was -0.122.
On to RRIRLRPPRLPRPRPRPYNSPRP, for which the “shrunken log2 fold change” value is -0.514.
With RRIRMRPPRLPRPRPRPFLEPRP, the “shrunken log2 fold change” value is -0.088.
Consider RRIRGRPPRLPRPRPRPSFQPRP, for which the “shrunken log2 fold change” value turned out to be 0.198.
Next, RRIRCRPPRLPRPRPRPLMKPRP: -0.275.
Regarding RRIRARPPRLPRPRPRPLNQPRP, the “shrunken log2 fold change” value was -0.0348.
On to RRIRKRPPRLPRPRPRPHSWPRP, for which the “shrunken log2 fold change” value is 0.0385.
For RRIRVRPPRLPRPRPRPDFIPRP, the “shrunken log2 fold change” value is -0.396.
Turning to RRIRVRPPRLPRPRPRPCRKPRP, the “shrunken log2 fold change” value amounted to 0.068.
In the case of RRIRKRPPRLPRPRPRPWAIPRP, the “shrunken log2 fold change” value is 0.14.
For RRIRNRPPRLPRPRPRPHYFPRP, the “shrunken log2 fold change” value was -0.0132.
Turning to RRIRWRPPRLPRPRPRPNTKPRP, the “shrunken log2 fold change” value was -0.187.
In the case of RRIRVRPPRLPRPRPRPPENPRP it was -0.0386; in that of RRIRRRPPRLPRPRPRPMYEPRP, -0.034.
Next, RRIRNRPPRLPRPRPRPCAPPRP: -0.436; RRIRRRPPRLPRPRPRPDDQPRP: 0.167; RRIRPRPPRLPRPRPRPLGMPRP: -0.0753.
Take RRIRHRPPRLPRPRPRPKKGPRP: the “shrunken log2 fold change” value was -0.0679.
For RRIRRRPPRLPRPRPRPGVQPRP, the “shrunken log2 fold change” value was -0.00257.
Take RRIRMRPPRLPRPRPRPQAHPRP: the “shrunken log2 fold change” value turned out to be 0.0821.
In the case of RRIRMRPPRLPRPRPRPTGYPRP it was 0.0453.
Next, RRIRRRPPRLPRPRPRPHSGPRP: 0.0307; RRIRTRPPRLPRPRPRPENSPRP: 0.032.
In the case of RRIRQRPPRLPRPRPRPQLKPRP it was -0.0311; in that of RRIRMRPPRLPRPRPRPPDCPRP, 0.865; in that of RRIRFRPPRLPRPRPRPFQKPRP, -0.00162.
For RRIRRRPPRLPRPRPRPAETPRP, the “shrunken log2 fold change” value was -0.0645.
Next, RRIRGRPPRLPRPRPRPRNFPRP: 0.197; RRIRYRPPRLPRPRPRPRCHPRP: -0.512; RRIRGRPPRLPRPRPRPIIYPRP: 0.0582.
As to RRIRHRPPRLPRPRPRPQDYPRP, the “shrunken log2 fold change” value was -0.101.
Next, RRIRGRPPRLPRPRPRPHREPRP: 0.121; RRIRLRPPRLPRPRPRPLLSPRP: -0.327; RRIRQRPPRLPRPRPRPEWYPRP: 0.0539.
As to RRIRFRPPRLPRPRPRPFITPRP, the “shrunken log2 fold change” value is -0.918.
For the sequence RRIRGRPPRLPRPRPRPLFGPRP, the “shrunken log2 fold change” value worked out at 0.584.
On to RRIRLRPPRLPRPRPRPCSSPRP, for which the “shrunken log2 fold change” value was -0.157.
Take RRIRMRPPRLPRPRPRPMPRPRP: the “shrunken log2 fold change” value was found to be 0.561.
RRIRVRPPRLPRPRPRPYIGPRP: the “shrunken log2 fold change” value was -0.661.
In the case of RRIRGRPPRLPRPRPRPGQQPRP, the “shrunken log2 fold change” value stood at 0.0088.
In the case of RRIRYRPPRLPRPRPRPVDIPRP, the “shrunken log2 fold change” value is -0.00973.
With RRIRLRPPRLPRPRPRPQSHPRP, the “shrunken log2 fold change” value is -0.349.
Take RRIRKRPPRLPRPRPRPFWRPRP: the “shrunken log2 fold change” value came to 0.00905.
As to RRIRIRPPRLPRPRPRPVEDPRP, the “shrunken log2 fold change” value is -0.158.
For the sequence RRIRTRPPRLPRPRPRPRLKPRP, the “shrunken log2 fold change” value came out at 0.0991.
As for RRIRKRPPRLPRPRPRPNDPPRP, the “shrunken log2 fold change” value is -0.0515.
With RRIRGRPPRLPRPRPRPLLCPRP, the “shrunken log2 fold change” value was found to be 1.17.
Next, RRIRMRPPRLPRPRPRPIAVPRP: -0.015; RRIRYRPPRLPRPRPRPNIDPRP: -1.61; RRIRARPPRLPRPRPRPARKPRP: 0.898.
RRIRVRPPRLPRPRPRPVFHPRP: the “shrunken log2 fold change” value is -0.213.
Take RRIRLRPPRLPRPRPRPIYRPRP: the “shrunken log2 fold change” value is -0.0597.
For RRIRARPPRLPRPRPRPVPHPRP, the “shrunken log2 fold change” value came out at 0.0133.
RRIRGRPPRLPRPRPRPAVAPRP: the “shrunken log2 fold change” value worked out at 0.813.
In the case of RRIRIRPPRLPRPRPRPTPHPRP it was 0.788; in that of RRIRPRPPRLPRPRPRPHAFPRP, 0.0176; in that of RRIRQRPPRLPRPRPRPCITPRP, -0.167.
RRIRCRPPRLPRPRPRPKDSPRP: the “shrunken log2 fold change” value is -0.198.
RRIRYRPPRLPRPRPRPCVPPRP: the “shrunken log2 fold change” value was -0.0398.
In the case of RRIRFRPPRLPRPRPRPLVQPRP, the “shrunken log2 fold change” value was -0.052.
Turning to RRIRRRPPRLPRPRPRPNTGPRP, the “shrunken log2 fold change” value is -0.121.
As for RRIRGRPPRLPRPRPRPVFQPRP, the “shrunken log2 fold change” value was found to be 0.519.
Next, RRIRERPPRLPRPRPRPKHHPRP: -0.217; RRIRERPPRLPRPRPRPYYDPRP: -0.362.
In the case of RRIRLRPPRLPRPRPRPEMDPRP, the “shrunken log2 fold change” value was -0.059.
For RRIRKRPPRLPRPRPRPGKGPRP, the “shrunken log2 fold change” value is -0.0491.
Turning to RRIRQRPPRLPRPRPRPKHFPRP, the “shrunken log2 fold change” value is -0.0231.
Turning to RRIRKRPPRLPRPRPRPGMNPRP, the “shrunken log2 fold change” value was -0.0284.
Take RRIRQRPPRLPRPRPRPEAAPRP: the “shrunken log2 fold change” value was determined as 0.751.
Next, RRIRERPPRLPRPRPRPWHHPRP: -0.326.
Take RRIRWRPPRLPRPRPRPWMLPRP: the “shrunken log2 fold change” value was -0.0694.
Turning to RRIRKRPPRLPRPRPRPFVHPRP, the “shrunken log2 fold change” value is -0.254.
For RRIRDRPPRLPRPRPRPKYFPRP, the “shrunken log2 fold change” value is -0.0236.
In the case of RRIRCRPPRLPRPRPRPVQKPRP, the “shrunken log2 fold change” value is -0.0201.
Take RRIRNRPPRLPRPRPRPIRQPRP: the “shrunken log2 fold change” value is 0.0261.
Take RRIRLRPPRLPRPRPRPEDNPRP: the “shrunken log2 fold change” value was found to be 0.0216.
As to RRIRLRPPRLPRPRPRPSFEPRP, the “shrunken log2 fold change” value was determined as 0.0552.
Regarding RRIRCRPPRLPRPRPRPAPPPRP, the “shrunken log2 fold change” value turned out to be 0.743.
Consider RRIRIRPPRLPRPRPRPWVMPRP, for which the “shrunken log2 fold change” value is -0.152.
As for RRIRMRPPRLPRPRPRPPCKPRP, the “shrunken log2 fold change” value is -0.0348.
For RRIRMRPPRLPRPRPRPFDTPRP, the “shrunken log2 fold change” value was -0.0634.
In the case of RRIRSRPPRLPRPRPRPKVRPRP it was 0.0559.
For RRIRNRPPRLPRPRPRPDLYPRP, the “shrunken log2 fold change” value was -0.0459.
In the case of RRIRGRPPRLPRPRPRPWIAPRP it was -0.0596.
Consider RRIRTRPPRLPRPRPRPRFQPRP, for which the “shrunken log2 fold change” value was 0.177.
In the case of RRIRERPPRLPRPRPRPDMHPRP it was -0.0138; in that of RRIRNRPPRLPRPRPRPECWPRP, 0.616; in that of RRIRSRPPRLPRPRPRPMNHPRP, -0.256.
RRIRIRPPRLPRPRPRPHLEPRP: the “shrunken log2 fold change” value is -0.384.
As for RRIRHRPPRLPRPRPRPLSLPRP, the “shrunken log2 fold change” value was -0.492.
As to RRIRERPPRLPRPRPRPPNWPRP, the “shrunken log2 fold change” value amounted to 0.368.
For the sequence RRIRTRPPRLPRPRPRPTNTPRP, the “shrunken log2 fold change” value was -0.536.
Next, RRIRYRPPRLPRPRPRPHWEPRP: -0.276.
Turning to RRIRFRPPRLPRPRPRPQDPPRP, the “shrunken log2 fold change” value was -0.00978.
In the case of RRIRTRPPRLPRPRPRPHMKPRP, the “shrunken log2 fold change” value is -0.712.
Consider RRIRERPPRLPRPRPRPSVNPRP, for which the “shrunken log2 fold change” value was -0.959.
For the sequence RRIRTRPPRLPRPRPRPNVNPRP, the “shrunken log2 fold change” value turned out to be 1.5.
Take RRIRCRPPRLPRPRPRPIQGPRP: the “shrunken log2 fold change” value was -0.0195.
As for RRIRARPPRLPRPRPRPCHMPRP, the “shrunken log2 fold change” value was -0.0816.
As to RRIRSRPPRLPRPRPRPMMPPRP, the “shrunken log2 fold change” value was -0.0787.
Regarding RRIRARPPRLPRPRPRPNPTPRP, the “shrunken log2 fold change” value came out at 1.11.
Consider RRIRERPPRLPRPRPRPLVDPRP, for which the “shrunken log2 fold change” value was -0.135.
On to RRIRPRPPRLPRPRPRPPSFPRP, for which the “shrunken log2 fold change” value worked out at 0.262.
On to RRIRVRPPRLPRPRPRPAKVPRP, for which the “shrunken log2 fold change” value came to 0.203.
In the case of RRIRKRPPRLPRPRPRPTKPPRP it was 0.221.
With RRIRSRPPRLPRPRPRPDIEPRP, the “shrunken log2 fold change” value came to 0.0454.
As for RRIRIRPPRLPRPRPRPCLKPRP, the “shrunken log2 fold change” value is -0.16.
With RRIRRRPPRLPRPRPRPYMCPRP, the “shrunken log2 fold change” value worked out at 0.154.
In the case of RRIRYRPPRLPRPRPRPCNLPRP it was -0.958.
